“Also recorded” adds a separate entry of the source. Where no end group is shown, it is not given here.
Tests used:
[1] = Mouse model: body weight and food intake; format: in vivo, BALB/c nude mice; settings: intratumoral 0.15 μmol/body/day for 7 weeks, among three treatment groups, data not shown
Description: (n) Mouse model: The animal experiments were conducted according to the institutional and national guidelines for the care and use of laboratory animals, and approved by the institutional animal use committee. 1×10^6 of A549 cells were subcutaneously implanted into the right shoulder of 6-week-old male BALB/c nude mice (nu/nu). Two weeks after the injection, the mice with tumor (30 mm^3 volume on average) were randomized into three groups and intratumorly administered with 11R-CDCA1398-416 peptides (0.15 μmol/body/day), scramble (0.15 μmol/body/day), or PBS (control) for 7 weeks. Tumor volume was measured once a day by using a caliper and applying the data to the formula (volume=0.52×[width]^2×[length]) to calculate the volume of a spheroid.

MRC5 cells = test: MTT assay, 11R-peptides on normal lung fibroblasts; format: cell-based; settings: normal human lung fibroblast derived MRC5 cells, hardly detectable CDCA1 and KNTC2
Description: (m) Effect of 11R-peptides on lung-cancer cell growth: LC319 and […] and normal human lung fibroblast derived MRC5 cells were incubated with 11R-peptides at the concentration of 5 μM, 10 μM, and 20 μM for seven days. The medium was exchanged every other day at the appropriate concentrations of each peptide and the viability of cells was evaluated by MTT assay at 7 days after the treatment; briefly, cell-counting kit-8 solution (DOJINDO, Kumamoto, Japan) was added to each dish at a concentration of 1/10 volume, and the plates were incubated at 37° C. for additional 4 hours. Absorbance was then measured at 490 nm, and at 630 nm as a reference, with a Microplate Reader 550 (BIO-RAD). Flow-cytometric analysis was performed as described previously (Suzuki, C. et al. Cancer Res. 65, 11314-11325 (2005).).

endogenous KNTC2 = target: T1, endogenous KNTC2 (Homo sapiens, UniProt O14777); test: Immunoprecipitation of FLAG-tagged CDCA1 deletion-constructs in LC319 cells; format: binding; settings: LC319 cells transfected with deletion-construct
T1 construct: endogenous in cells; host or cells: LC319
T1 sequence (O14777 1-642): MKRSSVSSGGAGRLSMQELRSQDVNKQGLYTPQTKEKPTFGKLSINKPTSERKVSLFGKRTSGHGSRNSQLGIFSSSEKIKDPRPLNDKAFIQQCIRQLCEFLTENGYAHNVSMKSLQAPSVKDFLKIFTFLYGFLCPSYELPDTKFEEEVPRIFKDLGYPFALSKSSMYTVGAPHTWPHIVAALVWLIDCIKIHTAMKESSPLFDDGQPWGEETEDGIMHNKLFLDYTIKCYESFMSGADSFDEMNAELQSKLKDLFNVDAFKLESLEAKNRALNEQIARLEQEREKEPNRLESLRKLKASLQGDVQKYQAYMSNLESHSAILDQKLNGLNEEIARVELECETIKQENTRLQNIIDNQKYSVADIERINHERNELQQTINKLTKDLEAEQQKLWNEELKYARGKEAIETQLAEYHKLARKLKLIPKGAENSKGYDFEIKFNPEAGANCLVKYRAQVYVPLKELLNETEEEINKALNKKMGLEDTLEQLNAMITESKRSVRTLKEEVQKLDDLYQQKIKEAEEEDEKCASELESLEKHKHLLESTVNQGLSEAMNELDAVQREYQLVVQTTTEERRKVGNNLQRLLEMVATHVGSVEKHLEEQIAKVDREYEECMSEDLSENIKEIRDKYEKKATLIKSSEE
Description: (g) Identification of the KNTC2-binding region in CDCA1: Eleven deletion-constructs of CDCA1 (CDCA1 200-464, CDCA1 149-464, CDCA11-348, CDCA11-148, CDCA1 149-306, CDCA1 306-464, CDCA1 319-464, CDCA1 277-416, CDCA1 277-367, CDCA1 319-416, and CDCA1 319-367) were cloned into appropriate sites of C-terminal FLAG-tagged-pCAGGS vector. Cell extracts from lung-cancer cell line LC319, transfected with plasmids expressing eleven deletion-constructs of CDCA1 were pre-cleared by incubation at 4° C. for 1 hour with 100 μl of protein G-agarose beads in final volumes of 2 ml of immunoprecipitation buffer (0.5% NP-40, 50 mM Tris-HCl, 150 mM NaCl) in the presence of proteinase inhibitor. After centrifugation at 1,000 rpm for 5 min at 4° C., the supernatants were incubated at 4° C. with anti-FLAG M2 agarose for 2 hours. After the beads were collected from each sample by centrifugation at 5,000 rpm for 2 min and washed six times with 1 ml of immunoprecipitation buffer, the washed beads were re-suspended in 50 μl of Laemmli sample buffer and boiled for 5 min before the proteins were separated on 10% SDS PAGE gels. Immunoblot was performed using KNTC2 polyclonal antibody (Abcom, Inc.) and anti-FLAG M2 monoclonal antibody respectively (Sigma-Aldrich Co.).

CDCA1-KNTC2 complex = target: T2, CDCA1-KNTC2 complex (Homo sapiens, UniProt O14777); test: Immunoprecipitation: suppression of CDCA1-KNTC2 complex formation in LC319 cells; format: binding; settings: LC319 cells co-transfected with CDCA1 1-464 and the fragment
T2 construct: full length) and endogenous KNTC2; expressed in transfected cells; host or cells: LC319
T2 sequence (O14777 1-642): T1 sequence (O14777 1-642)
Description: (f) Identification of CDCA1-associated Proteins: Cell extracts from lung-cancer cell line LC319 were pre-cleared by incubation at 4° C. for 1 hour with 50 μl of protein A and G-agarose beads, in final volumes of 2 ml of immunoprecipitation buffer (0.5% NP-40, 50 mM Tris-HCl, 150 mM NaCl) in the presence of proteinase inhibitor. After centrifugation at 1,000 rpm for 5 min at 4° C., the supernatants were incubated at 4° C. with anti-CDCA1 polyclonal antibody, anti-KNTC2 polyclonal antibody, or normal rabbit IgG for 2 hours. […] The nucleotide sequence of each cDNA clone was determined with an ABI Prism 3700 DNA sequencer (Applied Biosystems, Foster City, Calif.), using T3, T7, or synthetic oligonucleotide primers according to the manufacturer's instructions. […]
Since the band of endogenous CDCA1 immunoprecipitated with anti-CDCA1/KNTC2 antibody overlapped with IgG-heavy chain bands, it was difficult to detect the interaction between endogenous CDCA1 and KNTC2. […] Interaction of only CDCA1 1-464 (full length) or CDCA1 200-464 with endogenous KNTC2 was detected by immunoprecipitation using anti-KNTC2 polyclonal antibody (FIG. 5A; left top panel; black and white arrows). […]

LC319 cells = test: MTT assay after transfection of dominant-negative CDCA1 fragment; format: cell-based, human; settings: LC319 transfected with fragment plasmid; P=0.0026 CDCA1 200-464 vs CDCA1 149-306

Question: With “RRRRRRRRRRRGGGIQKIKLGIQQLKDAAEREK [11R-CDCA1 398-416]” as the molecule, how does the body weight [1] read?
Answer: no difference

Question: And the food intake [1]?
Answer: no difference

Question: And the “cell viability (MTT)” value (MRC5 cells)?
Answer: no off-target effect

Question: With “CDCA1 319-367: C-terminal FLAG-tagged deletion-construct of CDCA1 (NLEDQIESDESELKKLKTEENSFKRLMIVKKEKLATAQFKINKKHEDVK-{FLAG tag})” as the molecule, how does the “interaction with endogenous KNTC2” value (endogenous KNTC2) read?
Answer: unable to interact

B1: CDCA1 149-306: C-terminal FLAG-tagged deletion-construct of CDCA1, served as a control (protein)
chain: ADKMQQLNAAHQEALMKLERLDSVPVEEQEEFKQLSDGIQELQQSLNQDFHQKTIVLQEGNSQKKSNISEKTKRLNELKLLVVSLKEIQESLKTKIVDSPEKLKNYKEKMKDTVQKLKNARQEVVEKYEIYGDSVDCLPSCQLEVQLYQKKIQDLSDN
modifications: left off: small tags and cut ends
notes: C-terminal FLAG-tagged deletion-construct of CDCA1, served as a control
Question: Which “interaction with endogenous KNTC2” value (endogenous KNTC2) does the source give for B1 here?
Answer: unable to interact

Question: And the “interaction with endogenous KNTC2” value (endogenous KNTC2; listed as CDCA1149-306)?
Answer: did not retain any appreciable ability to interact

B2: CDCA1 200-464: C-terminal FLAG-tagged deletion-construct of CDCA1 lacking the N-terminal portion; dominant-negative fragment (protein)
chain: QKTIVLQEGNSQKKSNISEKTKRLNELKLLVVSLKEIQESLKTKIVDSPEKLKNYKEKMKDTVQKLKNARQEVVEKYEIYGDSVDCLPSCQLEVQLYQKKIQDLSDNREKLASILKESLNLEDQIESDESELKKLKTEENSFKRLMIVKKEKLATAQFKINKKHEDVKQYKRTVIEDCNKVQEKRGAVYERVTTINQEIQKIKLGIQQLKDAAEREKLKSQEIFLNLKTALEKYHDGIEKAAEDSYAKIDEKTAELKRKMFKMST
modifications: left off: small tags and cut ends
notes: C-terminal FLAG-tagged deletion-construct of CDCA1 lacking the N-terminal portion; dominant-negative fragment
Question: Which “complex formation between exogenous CDCA1 (full length) and endogenous KNTC2” value (CDCA1-KNTC2 complex) does the source give for B2 here?
Answer: reduced complex formation; also recorded: reduction of the complex formation

Question: And the “cell viability (MTT)” value (LC319 cells)?
Answer: significant decreases; also recorded: dominant-negative effect

Question: And the “interaction with endogenous KNTC2” value (endogenous KNTC2)?
Answer: strongest affinity; also recorded: Interaction

B3: CDCA11-148: C-terminal FLAG-tagged deletion-construct of CDCA1 (protein)
chain: METLSFPRYNVAEIVIHIRNKILTGADGKNLTKNDLYPNPKPEVLHMIYMRALQIVYGIRLEHFYMMPVNSEVMYPHLMEGFLPFSNLVTHLDSFLPICRVNDFETADILCPKAKRTSRFLSGIINFIHFREACRETYMEFLWQYKSS
modifications: left off: small tags and cut ends
notes: C-terminal FLAG-tagged deletion-construct of CDCA1
Question: For B3, which “interaction with endogenous KNTC2” value (endogenous KNTC2) is on record?
Answer: unable to interact; also recorded: did not retain any appreciable ability to interact

B4: CDCA1 277-367: C-terminal FLAG-tagged deletion-construct of CDCA1 (protein)
chain: EIYGDSVDCLPSCQLEVQLYQKKIQDLSDNREKLASILKESLNLEDQIESDESELKKLKTEENSFKRLMIVKKEKLATAQFKINKKHEDVK
modifications: left off: small tags and cut ends
Question: For B4, which “interaction with endogenous KNTC2” value (endogenous KNTC2) is on record?
Answer: unable to interact
